Results reported in paper PMC12310515.

Target: RBK21 variable region (residues 148-299) (P. falciparum (field isolate Lek174))
Assay: SPR

Sequence of KIR2DL1 (residues 27-221) (P43626 27-221): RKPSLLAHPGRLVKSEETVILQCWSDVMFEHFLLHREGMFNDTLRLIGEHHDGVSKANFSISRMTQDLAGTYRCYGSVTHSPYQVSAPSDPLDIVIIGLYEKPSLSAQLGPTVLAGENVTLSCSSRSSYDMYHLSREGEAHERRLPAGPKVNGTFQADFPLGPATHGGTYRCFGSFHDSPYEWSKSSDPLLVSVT
Sequence of KIR2DS1 (SPR protein) (Q14954 22-245): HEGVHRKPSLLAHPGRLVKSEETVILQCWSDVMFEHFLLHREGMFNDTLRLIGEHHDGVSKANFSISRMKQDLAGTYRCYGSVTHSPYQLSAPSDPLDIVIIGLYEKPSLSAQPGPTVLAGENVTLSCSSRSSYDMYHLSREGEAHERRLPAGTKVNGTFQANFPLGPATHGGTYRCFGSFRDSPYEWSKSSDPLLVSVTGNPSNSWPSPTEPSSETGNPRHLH

Substance	Kd [nM]
KIR2DS1 (SPR protein) (from UniProt Q14954) (receptor)	1700
KIR2DL1 (residues 27-221) (from UniProt P43626 27-221) (domain or fragment)	500
